Reference: paper PMC2171992

Legend:
[1] = target: muscle actin (UniProt P68135); assay: seeded actin assembly kinetics
[2] = target: muscle actin (UniProt P68135); assay: apparent critical concentration for actin polymerization at steady state

“Cap1 C-30, synthetic peptide corresponding to the Cap1 COOH-terminal 30 residues, 239–268 (from UniProt P28495 239-268)” was tested, and the Kd of capping (barbed end; fit with capping and monomer binding) [1] was 1710 nM, the Kd of monomer binding (fit with capping and monomer binding) [1] was 2860 nM and the k+2 of capping (barbed end; fit with capping and monomer binding) [1] was 2100 M⁻¹ s⁻¹.
For “Cap1Δ(239–268)/Cap2 (from UniProt P28495 1-238; P13517 1-287) (complex)”, the Kd [2] was > 50000 nM, the Kd [1] was 10300 nM and the koff [1] was 0.00233 s⁻¹.
